According to paper PMC7385124, “The molecular basis of thioalcohol production in human body odour” (Scientific Reports, 2020):

Target: the molecule itself
Assay: crystal structure; BsPatB, sitting drop, 0.2 M ammonium acetate pH 7.1, 20% PEG 3,350

B1: Bacillus subtilis 168 PatB (PLP-bound C-S lyase) (enzyme)
chain: MGGGFAMNFDKREERLGTQSVKWDKTGELFGVTDALPMWVADMDFRAPEAITEALKERLDHGIFGYTTPDQKTKDAVCGWMQNRHGWKVNPESITFSPGVVTALSMAVQAFTEPGDQVVVQPPVYTPFYHMVEKNGRHILHNPLLEKDGAYAIDFEDLETKLSDPSVTLFILCNPHNPSGRSWSREDLLKLGELCLEHGVTVVSDEIHSDLMLYGHKHTPFASLSDDFADISVTCAAPSKTFNIAGLQASAIIIPDRLKRAKFSASLQRNGLGGLNAFAVTAIEAAYSKGGPWLDELITYIEKNMNEAEAFLSTELPKVKMMKPDASYLIWLDFSAYGLSDAELQQRMLKKGKVILEPGTKYGPGGEGFMRLNAGCSLATLQDGLRRIKAALSENLYFQG
modifications: PLP covalently bound to Lys234 (internal aldimine)
notes: N-terminal overhang from cloning into pBADcLIC; PatB (C-S lyase, cystathionine beta-lyase activity) of Bacillus subtilis 168, full-length gene; C-terminal linker of the vector before the His10 tag; also called BsPatB; source: E. coli MC1061, pBADcLIC, purified (HisTrap)
- stoichiometry N: 2
